{
  "source": "paper PMC11202169",
  "about": "“A Novel Fluorescence-Based Microplate Assay for High-Throughput Screening of hSULT1As Inhibitors” (Biosensors, 2024)",
  "assay_type_in_all_cases": "biochemical, human",
  "details_in_all_cases": "other: HN-241 4-O-sulfation",
  "key": {"[1]": {"substrate": "CCN1C(=O)c2cccc3c(O)ccc(c23)C1=O", "experiment": "Enzymatic kinetics of hSULT1A3-catalyzed HN-241 4-O-sulfation", "protocol": "(§1) The enzymatic kinetic parameters of hSULT1As-catalyzed HN-241 4-O-sulfation were measured by incubating increasing concentrations of HN-241 with each of the hSULT1As for a certain period. The fitting equations included Equation (2), the Michaelis–Menten equation, and Equation (3) for enzyme kinetics with substrate inhibition. Related kinetic parameters were fitted by GraphPad Prism 8.0 (San Diego, CA, USA). (2) V=Vmax × [S]/Km+[S] (3) V=Vmax × [S]/Km+[S](1+[S]/Ki)\n(§2) [S] refers to the concentration of HN-241, Vmax is the maximum rate of hSULT1As-catalyzed HN-241 4-O-sulfation, Km is the substrate concentration at the half Vmax, and Ki represents the dissociation constant for the binding of the substrate to the inhibitory site."}, "[2]": {"substrate": "CCN1C(=O)c2cccc3c(O)ccc(c23)C1=O", "experiment": "Enzymatic kinetics of hSULT1A1-catalyzed HN-241 4-O-sulfation", "protocol": "as §1, §2"}, "[3]": {"substrate": "CCN1C(=O)c2cccc3c(O)ccc(c23)C1=O", "experiment": "Enzymatic kinetics of hSULT1A2-catalyzed HN-241 4-O-sulfation", "protocol": "as §1, §2"}},
  "data": [
    {"protein": "hSULT1A3 (Homo sapiens) (protein, 6-histidine tag (N); TEV site (N); made in house; host or cells: Escherichia coli BL21 (DE3), pET29a(+)) MELIQDTSRPPLEYVKGVPLIKYFAEALGPLQSFQARPDDLLINTYPKSGTTWVSQILDMIYQGGDLEKCNRAPIYVRVPFLEVNDPGEPSGLETLKDTPPPRLIKSHLPLALLPQTLLDQKVKVVYVARNPKDVAVSYYHFHRMEKAHPEPGTWDSFLEKFMAGEVSYGSWYQHVQEWWELSRTHPVLYLFYEDMKENPKREIQKILEFVGRSLPEETMDFMVQHTSFKEMKKNPMTNYTTVPQELMDHSISPFMRKGMAGDWKTTFTVAQNERFDADYAEKMAGCSLSFRSEL", "values": [
      {"measurement": "Km", "setting": "[1]", "result": "12.90 ± 1.16", "unit": "µM"},
      {"measurement": "Vmax", "setting": "[1]", "result": 0.00881, "unit": "µmol/min/mg"},
      {"measurement": "Vmax/Km", "setting": "[1]", "result": 683, "unit": "µL/min/mg"}
    ]},
    {"protein": "hSULT1A1 (Homo sapiens) (protein, 6-histidine tag (N); TEV site (N); made in house; host or cells: Escherichia coli BL21 (DE3), pET29a(+)) MELIQDTSRPPLEYVKGVPLIKYFAEALGPLQSFQARPDDLLISTYPKSGTTWVSQILDMIYQGGDLEKCHRAPIFMRVPFLEFKAPGIPSGMETLKDTPAPRLLKTHLPLALLPQTLLDQKVKVVYVARNAKDVAVSYYHFYHMAKVHPEPGTWDSFLEKFMVGEVSYGSWYQHVQEWWELSRTHPVLYLFYEDMKENPKREIQKILEFVGRSLPEETVDFVVQHTSFKEMKKNPMTNYTTVPQEFMDHSISPFMRKGMAGDWKTTFTVAQNERFDADYAEKMAGCSLSFRSEL", "values": [
      {"measurement": "Km", "setting": "[2]", "result": "0.91 ± 0.24", "unit": "µM"},
      {"measurement": "Vmax", "setting": "[2]", "result": "0.0221 ± 0.00443", "unit": "µmol/min/mg"},
      {"measurement": "Vmax/Km", "setting": "[2]", "result": 24300, "unit": "µL/min/mg"}
    ]},
    {"protein": "hSULT1A2 (Homo sapiens) (protein, 6-histidine tag (N); TEV site (N); made in house; host or cells: Escherichia coli BL21 (DE3), pET29a(+)) MELIQDISRPPLEYVKGVPLIKYFAEALGPLQSFQARPDDLLISTYPKSGTTWVSQILDMIYQGGDLEKCHRAPIFMRVPFLEFKVPGIPSGMETLKNTPAPRLLKTHLPLALLPQTLLDQKVKVVYVARNAKDVAVSYYHFYHMAKVYPHPGTWESFLEKFMAGEVSYGSWYQHVQEWWELSRTHPVLYLFYEDMKENPKREIQKILEFVGRSLPEETVDLMVEHTSFKEMKKNPMTNYTTVRREFMDHSISPFMRKGMAGDWKTTFTVAQNERFDADYAKKMAGCSLSFRSEL", "values": [
      {"measurement": "Km", "setting": "[3]", "result": "4.47 ± 0.20", "unit": "µM"},
      {"measurement": "Vmax", "setting": "[3]", "result": 0.00644, "unit": "µmol/min/mg"},
      {"measurement": "Vmax/Km", "setting": "[3]", "result": 1440, "unit": "µL/min/mg"}
    ]}
  ]
}
